In PMC12609908:

Experiments:
[1] = target: T1, CutR (Mycobacterium sp. strain JC1) (UniProt D5G1X9); experiment: EMSA; settings: 50 mM Tris-HCl pH 8.0, 100 mM NaCl, 40% glycerol, 5 mM DTT, 2 mM EDTA, 4 °C 1 h; 10% native PAGE in 0.5x TBE at 4 °C
T1 sequence: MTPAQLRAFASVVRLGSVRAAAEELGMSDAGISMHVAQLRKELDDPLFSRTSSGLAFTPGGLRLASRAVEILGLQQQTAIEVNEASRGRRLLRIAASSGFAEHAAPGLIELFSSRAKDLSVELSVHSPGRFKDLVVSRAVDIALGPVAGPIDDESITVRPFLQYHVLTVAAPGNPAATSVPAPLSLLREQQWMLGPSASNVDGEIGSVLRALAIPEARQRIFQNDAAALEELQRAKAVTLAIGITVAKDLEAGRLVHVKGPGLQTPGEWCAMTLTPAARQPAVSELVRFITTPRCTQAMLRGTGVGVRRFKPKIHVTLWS

[2] = target: CutR, LysR-type transcriptional regulator from Mycobacterium sp. strain JC1 (native protein) (Mycobacterium sp. strain JC1); experiment: SEC; Superdex G-75 column, 20 mM Tris-HCl pH 7.5, 500 mM NaCl, 5 mM beta-mercaptoethanol; size standards conalbumin, ovalbumin, carbonic anhydrase, ribonuclease A, aprotinin

Q: With “ACCCCGAGTTAAGTGATTCCTTAACTCGCTATTGACGCCATCGCGGCGGCAACGGAAACTAGCCACTTCAGCCACGACGTTGTGAGGATGATCACATGCAA (double strand) [IR1 to CRP motif fragment (101 bp)]” as the substance, how does the binding [1] read?
A: binds

Q: How did the stoichiometry N [2] turn out when “CutR, LysR-type transcriptional regulator from Mycobacterium sp. strain JC1 (native protein) (natural protein)” was run?
A: 2
